Paper PMC9524020

Tests used:
Assay in all cases: SPR
[1] = molecular target: biotinylated, recombinant, human FcγRIIIa-158V from SinoBiological (human)
[2] = molecular target: FcγRIIIa-158F-CHO^WT (soluble FcγRIIIa, allotype 158F, from wild-type CHO) (human) (UniProt P08637)
[3] = molecular target: FcγRIIIa-158V-Oligomannose (human)
[4] = molecular target: FcγRIIIa-158F-G2FS(2-3) (human) (UniProt P08637)
[5] = molecular target: FcγRIIIa-158V-Afucosylated (human)
[6] = molecular target: FcγRIIIa-158F-G2FS(2-6) (human) (UniProt P08637)
FcγRIIIa-158F-G2FS(2-6) (human), sequence (P08637 17-208): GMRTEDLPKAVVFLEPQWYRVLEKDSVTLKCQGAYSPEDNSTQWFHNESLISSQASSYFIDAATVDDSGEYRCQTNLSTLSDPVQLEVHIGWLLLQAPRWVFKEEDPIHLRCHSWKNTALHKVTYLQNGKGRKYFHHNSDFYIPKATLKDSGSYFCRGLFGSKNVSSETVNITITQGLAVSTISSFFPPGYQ

[7] = molecular target: FcγRIIIa-158V-G2FS(2-6) (human)
[8] = molecular target: biotinylated, recombinant, human FcγRIIIa-158F from SinoBiological (human) (UniProt P08637)
biotinylated, recombinant, human FcγRIIIa-158F from SinoBiological (human), sequence (P08637 17-208): as above

[9] = molecular target: FcγRIIIa-158V-G2FS(2-3) (human)
[10] = molecular target: FcγRIIIa-158V-CHO^WT (soluble FcγRIIIa, allotype 158V, from wild-type CHO) (human)
[11] = molecular target: FcγRIIIa-158F-Monoantennae (human) (UniProt P08637)
FcγRIIIa-158F-Monoantennae (human), sequence (P08637 17-208): as above

[12] = molecular target: FcγRIIIa-158F-Hybrid (human) (UniProt P08637)
FcγRIIIa-158F-Hybrid (human), sequence (P08637 17-208): as above

[13] = molecular target: FcγRIIIa-158V-Monoantennae (human)
[14] = molecular target: FcγRIIIa-158F-HEK^WT (human) (UniProt P08637)
FcγRIIIa-158F-HEK^WT (human), sequence (P08637 17-208): as above

[15] = molecular target: FcγRIIIa-158F-Afucosylated (human) (UniProt P08637)
FcγRIIIa-158F-Afucosylated (human), sequence (P08637 17-208): as above

[16] = molecular target: FcγRIIIa-158V-Hybrid (human)
[17] = molecular target: FcγRIIIa-158V-HEK^WT (human)
[18] = molecular target: FcγRIIIa-158V, FcγRIIIa-CHO^WT (human)
FcγRIIIa-158V, FcγRIIIa-CHO^WT (human), sequence (P08637 17-208 F176V): as the sequence (P08637 17-208) above, with F160V counted along it

[19] = molecular target: FcγRIIIa-158V, FcγRIIIa-Hybrid (human)
FcγRIIIa-158V, FcγRIIIa-Hybrid (human), sequence (P08637 17-208 F176V): as the sequence (P08637 17-208) above, with F160V counted along it

[20] = molecular target: FcγRIIIa-158V, FcγRIIIa-Oligomannose (human)
FcγRIIIa-158V, FcγRIIIa-Oligomannose (human), sequence (P08637 17-208 F176V): as the sequence (P08637 17-208) above, with F160V counted along it

[21] = molecular target: FcγRIIIa-158V, FcγRIIIa-G2FS(2-3) (human)
FcγRIIIa-158V, FcγRIIIa-G2FS(2-3) (human), sequence (P08637 17-208 F176V): as the sequence (P08637 17-208) above, with F160V counted along it

[22] = molecular target: FcγRIIIa-158V, FcγRIIIa-Monoantennae (human)
FcγRIIIa-158V, FcγRIIIa-Monoantennae (human), sequence (P08637 17-208 F176V): as the sequence (P08637 17-208) above, with F160V counted along it

[23] = molecular target: FcγRIIIa-158V, FcγRIIIa-Afucosylated (human)
FcγRIIIa-158V, FcγRIIIa-Afucosylated (human), sequence (P08637 17-208 F176V): as the sequence (P08637 17-208) above, with F160V counted along it

[24] = molecular target: FcγRIIIa-158V, FcγRIIIa-G2FS(2-6) (human)
FcγRIIIa-158V, FcγRIIIa-G2FS(2-6) (human), sequence (P08637 17-208 F176V): as the sequence (P08637 17-208) above, with F160V counted along it

[25] = molecular target: FcγRIIIa-158V, FcγRIIIa-HEK^WT (human)
FcγRIIIa-158V, FcγRIIIa-HEK^WT (human), sequence (P08637 17-208 F176V): as the sequence (P08637 17-208) above, with F160V counted along it

FcγRIIIa-158F-CHO^WT (soluble FcγRIIIa, allotype 158F, from wild-type CHO) (human), sequence (P08637 17-208): as the sequence (P08637 17-208) above
FcγRIIIa-158F-G2FS(2-3) (human), sequence (P08637 17-208): as above

IgG1-CHO^WT (anti-rabies human IgG1 mAb SO57 from wild-type CHO) (antibody)
Kd [1]: 440 nM
Kd [2]: 3490 nM
Kd [3]: 242 nM
Kd [4]: 2540 nM
Kd [5]: 464 nM
Kd [6]: 1680 nM
Kd [7]: 443 nM
Kd [8]: 1780 nM
Kd [9]: 624 nM
Kd [10]: 489 nM
Kd [11]: 2350 nM
Kd [12]: 2220 nM
Kd [13]: 489 nM
Kd [14]: 2160 nM
Kd [15]: 2330 nM
Kd [16]: 456 nM
Kd [17]: 440 nM

IgG1-G0 (mAb SO57) (antibody)
Kd [1]: 32.9 nM
Kd [2]: 213 nM
Kd [3]: 14.2 nM
Kd [4]: 184 nM
Kd [5]: 29.6 nM
Kd [7]: 29.7 nM
Kd [10]: 36.9 nM
Kd [11]: 170 nM
Kd [13]: 37.6 nM
Kd [15]: 164 nM
Kd [16]: 33 nM

IgG1-G0 (mAb SO57, afucosylated, agalactosylated)
Kd [18]: 37 nM
Kd [19]: 33 nM
Kd [20]: 14 nM
Kd [21]: 38 nM
Kd [22]: 38 nM

IgG1-G2F (mAb SO57) (antibody)
Kd [2]: 1860 nM
Kd [4]: 1370 nM
Kd [5]: 270 nM
Kd [6]: 851 nM
Kd [7]: 262 nM
Kd [8]: 965 nM
Kd [9]: 377 nM
Kd [10]: 278 nM
Kd [11]: 1270 nM
Kd [12]: 1210 nM
Kd [13]: 305 nM
Kd [14]: 1150 nM
Kd [15]: 1210 nM
Kd [16]: 297 nM
Kd [17]: 263 nM

IgG1-G2F (mAb SO57, galactosylated)
Kd [23]: 270 nM
Kd [19]: 300 nM
Kd [24]: 260 nM
Kd [25]: 260 nM
Kd [21]: 380 nM
Kd [22]: 300 nM

IgG1-G2FS(2-3) (mAb SO57) (antibody)
Kd [1]: 275 nM
Kd [2]: 1880 nM
Kd [3]: 143 nM
Kd [4]: 1330 nM
Kd [5]: 275 nM
Kd [6]: 832 nM
Kd [7]: 259 nM
Kd [8]: 953 nM
Kd [9]: 385 nM
Kd [10]: 288 nM
Kd [11]: 1340 nM
Kd [12]: 1220 nM
Kd [13]: 312 nM
Kd [14]: 1190 nM
Kd [15]: 1220 nM
Kd [16]: 302 nM
Kd [17]: 259 nM

IgG1-G2FS(2-3) (mAb SO57, α2-3 linked Sia)
Kd [18]: 290 nM
Kd [19]: 300 nM
Kd [24]: 260 nM
Kd [25]: 260 nM
Kd [22]: 310 nM

IgG1-G2FS(2-6) (mAb SO57) (antibody)
Kd [1]: 275 nM
Kd [2]: 1860 nM
Kd [3]: 145 nM
Kd [4]: 1240 nM
Kd [5]: 260 nM
Kd [9]: 398 nM
Kd [11]: 1110 nM
Kd [12]: 1110 nM
Kd [13]: 289 nM
Kd [14]: 1050 nM
Kd [15]: 964 nM
Kd [16]: 281 nM
Kd [17]: 261 nM

IgG1-G2FS(2-6) (mAb SO57, α2-6 linked Sia)
Kd [23]: 260 nM
Kd [25]: 260 nM
Kd [21]: 400 nM
Kd [22]: 290 nM

IgG1-Hybrid (mAb SO57) (antibody)
Kd [1]: 598 nM
Kd [2]: 4610 nM
Kd [3]: 399 nM
Kd [5]: 808 nM
Kd [7]: 573 nM
Kd [8]: 2230 nM
Kd [9]: 1070 nM
Kd [10]: 869 nM
Kd [11]: 2200 nM
Kd [12]: 2660 nM
Kd [13]: 426 nM
Kd [14]: 2510 nM
Kd [15]: 2210 nM
Kd [16]: 471 nM
Kd [17]: 693 nM

IgG1-Hybrid (mAb SO57, hybrid N-glycan)
Kd [18]: 870 nM
Kd [23]: 810 nM
Kd [19]: 470 nM
Kd [25]: 690 nM
Kd [20]: 400 nM
Kd [21]: 1100 nM

IgG1-Monoantennae (mAb SO57) (antibody)
Kd [1]: 761 nM
Kd [3]: 375 nM
Kd [5]: 698 nM
Kd [7]: 755 nM
Kd [8]: 3260 nM
Kd [9]: 935 nM
Kd [10]: 635 nM
Kd [13]: 731 nM
Kd [16]: 742 nM
Kd [17]: 643 nM

IgG1-Monoantennae (mAb SO57, monoantennary N-glycan)
Kd [18]: 640 nM
Kd [23]: 700 nM
Kd [19]: 740 nM
Kd [24]: 750 nM
Kd [25]: 640 nM
Kd [20]: 380 nM
Kd [21]: 930 nM
Kd [22]: 730 nM

IgG1-Oligomannose (mAb SO57) (antibody)
Kd [1]: 93.2 nM
Kd [2]: 582 nM
Kd [3]: 37.6 nM
Kd [4]: 480 nM
Kd [5]: 88.3 nM
Kd [7]: 79.6 nM
Kd [9]: 123 nM
Kd [11]: 428 nM
Kd [12]: 405 nM
Kd [13]: 109 nM
Kd [14]: 383 nM
Kd [15]: 406 nM
Kd [16]: 104 nM
Kd [17]: 87.2 nM

IgG1-Oligomannose (mAb SO57, Man5)
Kd [23]: 88 nM
Kd [24]: 80 nM
Kd [25]: 87 nM
Kd [20]: 38 nM
